Experiments:
[1] = target: T1, Oct1 (in vitro translated) (Ictalurus punctatus (channel catfish; …, UniProt O57602 1-623); experiment: EMSA; cold self competitor inhibits; anti-Oct1 abolishes shift; 1x Promega binding buffer (from 5x, composition not given), 30 min preincubation at room temperature then 30 min with probe; 5% native PAGE at 4°C; 100x competitor; pH and salt not given; extract EMSA as in Ross et al; details: protein: ivt; label: 32P-dATP Klenow fill-in; 5' overhang 4 nt on both strands as annealed; labeled by Klenow fill-in
T1 sequence: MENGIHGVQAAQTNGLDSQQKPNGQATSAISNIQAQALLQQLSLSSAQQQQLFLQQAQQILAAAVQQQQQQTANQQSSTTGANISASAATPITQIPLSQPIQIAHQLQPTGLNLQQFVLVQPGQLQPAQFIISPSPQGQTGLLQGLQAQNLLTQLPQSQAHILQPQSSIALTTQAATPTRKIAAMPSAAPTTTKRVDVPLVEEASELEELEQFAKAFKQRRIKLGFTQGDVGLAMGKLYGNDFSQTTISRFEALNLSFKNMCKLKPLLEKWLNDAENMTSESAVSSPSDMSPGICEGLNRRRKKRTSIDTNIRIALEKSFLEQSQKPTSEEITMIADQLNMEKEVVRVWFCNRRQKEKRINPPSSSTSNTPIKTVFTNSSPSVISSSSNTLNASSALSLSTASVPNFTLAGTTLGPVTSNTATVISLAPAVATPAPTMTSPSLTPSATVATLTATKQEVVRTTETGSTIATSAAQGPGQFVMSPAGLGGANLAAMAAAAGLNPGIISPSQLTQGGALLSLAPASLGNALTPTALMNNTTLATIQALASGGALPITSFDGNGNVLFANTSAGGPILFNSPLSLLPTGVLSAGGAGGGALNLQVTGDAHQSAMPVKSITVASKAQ

[2] = target: T2, Oct2β (in vitro translated) (Ictalurus punctatus (channel catfish), UniProt O13007 1-480); experiment: EMSA; 1x Promega binding buffer (from 5x, composition not given), 30 min preincubation at room temperature then 30 min with probe; 5% native PAGE at 4°C; 100x competitor; pH and salt not given; extract EMSA as in Ross et al; details: protein: ivt; label: 32P-dATP Klenow fill-in; 5' overhang 4 nt on both strands as annealed; labeled by Klenow fill-in
T2 sequence: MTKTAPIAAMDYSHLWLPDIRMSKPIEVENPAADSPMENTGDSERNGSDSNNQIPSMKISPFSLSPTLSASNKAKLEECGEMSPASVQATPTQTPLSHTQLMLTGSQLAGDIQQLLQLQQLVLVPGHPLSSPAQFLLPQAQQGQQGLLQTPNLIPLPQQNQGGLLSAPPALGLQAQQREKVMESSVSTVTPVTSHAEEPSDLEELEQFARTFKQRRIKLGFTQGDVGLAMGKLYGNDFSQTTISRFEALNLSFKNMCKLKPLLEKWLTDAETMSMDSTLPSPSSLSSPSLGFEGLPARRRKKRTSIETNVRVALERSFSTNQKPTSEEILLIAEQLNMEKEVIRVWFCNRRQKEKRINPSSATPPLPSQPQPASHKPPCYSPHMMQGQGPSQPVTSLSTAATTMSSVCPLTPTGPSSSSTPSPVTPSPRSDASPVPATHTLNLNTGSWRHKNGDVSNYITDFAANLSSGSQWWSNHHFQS

B1: Eμ3' core enhancer first octamer (G-2110/G-2111) (dsDNA)
DNA 1: GCAAAACACTGCATGTAAATAGTCTAAT
DNA 2: CATTATTAGACTATTTACATGCAGTGTT
binding result [1]: binds
binding result [2]: binds

Reference: publication PMC1800861, “Characterization of an Oct1 orthologue in the channel catfish, Ictalurus punctatus: A negative regulator of immunoglobulin gene transcription?”
